The test system of data set [1] is VchCAST RNA-guided transposition machinery (E. coli BL21(DE3) host, lacZ target). Nature of the data set: relative integration efficiency (T-LR orientation) vs wild-type transposon end (log2 (normalized fold change)); transposon end mutated: right end (5 bp flank + 75 bp right end); higher = more efficient transposition. A digest of the protocol: (§1)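 Barcode abundances in input plasmids and in genomic integration junctions were obtained by PCR amplification and Illumina sequencing. These came from E. coli BL21(DE3) co-transformed with a T7-driven effector plasmid and a pUC57 donor carrying 1549 left-end or 1849 right-end transposon variants, then plated with 0.1 mM IPTG at 37°C for 18 h. Relative integration efficiency is the output/input fold change, normalised to reference barcodes and log-transformed.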

Data set [2] has the same test system. Kind of data set: relative integration efficiency (T-RL orientation) vs wild-type transposon end (log2 (normalized fold change)); transposon end mutated: right end (5 bp flank + 75 bp right end); higher = more efficient transposition. A digest of the protocol: as §1

We go through 32 sequences from the supplement of paper PMC10201428.

± gives the standard deviation of the averaged measurements.

As for “ACATTTGTTGATACACCCATAAATTGATATTGCCACCCATAAATTGATAATTATCAGTGGGTATTTAACTATAACGCTCTGATCATAGTCAGACCAACATTGCTACGACCCGTATTCGCACCGACAC”, the “relative integration efficiency (log2)” value is 2.03 ± 0.071 in data set [1] and -1.42 ± 0.14 in data set [2].
Regarding “ACATTTGTTGATACACCCATAAATTGATATTGCCACCCATAAATTGATATTGCTCACAACCATAAAATGATAATTACTCTGATCATAGTCAGACCAACATTGCTACGACCCGTATTCGCACCGACAC”, the results for the “relative integration efficiency (log2)” value in data set [1] and in data set [2] were -0.156 ± 0.22 and -0.874 ± 0.16, respectively.
For “ACATTTGTTGATACACCCATAAATTGATATTGCCACCCATAAATTGATATTGCTCACAACCATAAAGTGATATTTACTCTGATCATAGTCAGACCAACATTGCTACGACCCGTATTCGCACCGACAC”, the “relative integration efficiency (log2)” value in data set [1] is 0.0649 ± 0.043; in data set [2], -0.811 ± 0.21.
“ACATTTGTTGATACACCCATAAATTGATATTGCCACCCATAAATTGATATTGCTCACAACCATAAGTTGATATTTTCTCTGATCATAGTCAGACCAACATTGCTACGACCCGTATTCGCACCGACAC”: the “relative integration efficiency (log2)” value in data set [1] is -0.179 ± 0.051; in data set [2], -1.05 ± 0.16.
On to “ACATTTGTTGATACACCCATAAATTGATATTGCCACCCATAAATTGATATTGCTCACAACCATATATTGATATCTCCTCTGATCATAGTCAGACCAACATTGCTACGACCCGTATTCGCACCGACAC”, for which the figures for the “relative integration efficiency (log2)” value in data set [1] and in data set [2] were 0.239 ± 0.14 and -1.05 ± 0.22, respectively.
In the case of “ACATTTGTTGATACACCCATAAATTGATATTGCCACCCATAAATTGATATTGCTCACACCCATAAATTGATAATTACTCTGATCATAGTCAGACCAACATTGCTACGACCCGTATTCGCACCGACAC”, the “relative integration efficiency (log2)” value in data set [1] was 0.226 ± 0.19; in data set [2] it was -1.21 ± 0.15.
In the same order, the values of “ACATTTGTTGATACACCCATAAATTGATATTGCCACCCATAAATTGATATTGCTCACACCCATAAATTGATATTGCCTCTGATCATAGTCAGACCAACATTGCTACGACCCGTATTCGCACCGACAC” are 0.0807 ± 0.15 and -0.939 ± 0.095.
In the same order, the values of “ACATTTGTTGATACACCCATAAATTGATATTGCCACCCATAAATTGATATTGCTCAGTGGGTATTTAACTATAACGCTCTGATCATAGTCAGACCAACATTGCTACGACCCGTATTCGCACCGACAC” are 2.19 ± 0.12 and -1.66 ± 0.34.
The corresponding values for “ACATTTGTTGATACATCCATAAAATGATAATTACAGCCATAAATTGATAATTATCACAGCCATAAATTGATATTGCCTCTGATCATAGTCAGACCAACATTGCTACGACCCGTATTCGCACCGACAC” are -0.607 ± 0.2 and -0.851 ± 0.072.
Consider “ACATTTGTTGATACATGCATAAAATGATAATTACACCCATAAATTGATAATTATCACACCCATAAATTGATATTGCCTCTGATCATAGTCAGACCAACATTGCTACGACCCGTATTCGCACCGACAC”, for which the “relative integration efficiency (log2)” value in data set [1] was -0.66 ± 0.08; in data set [2], -0.321 ± 0.046.
On to “ACATTTGTTGATACATGGTTAAAATGATAATTACACCCATAAATTGATAATTATCACACCCATAAATTGATATTGCCTCTGATCATAGTCAGACCAACATTGCTACGACCCGTATTCGCACCGACAC”, for which the figures for the “relative integration efficiency (log2)” value in data set [1] and in data set [2] were -2.05 ± 0.37 and -1.62 ± 0.088, respectively.
For the sequence “ACATTTGTTGATACCACCATAAAATGATAATTACACCCATACATTGATAATTATCACACCCAATTTAACTATAACGCTCTGATCATAGTCAGACCAACATTGCTACGACCCGTATTCGCACCGACAC”, the “relative integration efficiency (log2)” value was 0.947 ± 0.23 in data set [1] and -2.1 ± 0.38 in data set [2].
Consider “ACATTTGTTGATACCACCATAAAATGATAATTACACCCCTAAATTGATAATTATCACACCCAATTTAACTATAACGCTCTGATCATAGTCAGACCAACATTGCTACGACCCGTATTCGCACCGACAC”, for which the “relative integration efficiency (log2)” value in data set [1] was 0.973 ± 0.2; in data set [2], -2.41 ± 0.33.
Regarding “ACATTTGTTGATACCACCATAAAATGATAATTACACCCCTACATTGATAATTATCACACCCAATTTAACTATAACGCTCTGATCATAGTCAGACCAACATTGCTACGACCCGTATTCGCACCGACAC”, the “relative integration efficiency (log2)” value was -0.284 ± 0.22 in data set [1] and -3.75 ± 0.28 in data set [2].
On to “ACATTTGTTGATACCACCATAAAATGATAATTACCCCCATAAATTGATAATTATCACCCCCATAAATTGATATTGCCTCTGATCATAGTCAGACCAACATTGCTACGACCCGTATTCGCACCGACAC”, for which the results for the “relative integration efficiency (log2)” value in data set [1] and in data set [2] were 1.35 ± 0.29 and 0.364 ± 0.15, respectively.
Turning to “ACATTTGTTGATACCACCATAAAATGATAATTCCACCCATAAATTGATAATTATCACACCCAATTTAACTATAACGCTCTGATCATAGTCAGACCAACATTGCTACGACCCGTATTCGCACCGACAC”, the “relative integration efficiency (log2)” value in data set [1] was 2.52 ± 0.15; in data set [2], -1.1 ± 0.17.
“ACATTTGTTGATACCACCATAAAATGATAATTCCACCCATACATTGATAATTATCACACCCAATTTAACTATAACGCTCTGATCATAGTCAGACCAACATTGCTACGACCCGTATTCGCACCGACAC”: the “relative integration efficiency (log2)” value in data set [1] is 0.789 ± 0.33; in data set [2], -2.81 ± 0.42.
In the case of “ACATTTGTTGATACCACCATAAAATGATAATTCCACCCCTAAATTGATAATTATCACACCCAATTTAACTATAACGCTCTGATCATAGTCAGACCAACATTGCTACGACCCGTATTCGCACCGACAC”, the figures for the “relative integration efficiency (log2)” value in data set [1] and in data set [2] were 0.417 ± 0.16 and -2.92 ± 0.31, respectively.
For the sequence “ACATTTGTTGATACCACCATAAAATGATAATTCCACCCCTACATTGATAATTATCACACCCAATTTAACTATAACGCTCTGATCATAGTCAGACCAACATTGCTACGACCCGTATTCGCACCGACAC”, the “relative integration efficiency (log2)” value is -0.121 ± 0.44 in data set [1] and -3.78 ± 0.24 in data set [2].
For “ACATTTGTTGATACCACCATAAAATGGTAATTACACCCATAAATTGATAATTATCACACCCAATTTAACTATAACGCTCTGATCATAGTCAGACCAACATTGCTACGACCCGTATTCGCACCGACAC”, the figures for the “relative integration efficiency (log2)” value in data set [1] and in data set [2] were 2.15 ± 0.17 and -1.38 ± 0.13, respectively.
As for “ACATTTGTTGATACCACCATAAAATGGTAATTACACCCATACATTGATAATTATCACACCCAATTTAACTATAACGCTCTGATCATAGTCAGACCAACATTGCTACGACCCGTATTCGCACCGACAC”, the “relative integration efficiency (log2)” value in data set [1] is 0.455 ± 0.2; in data set [2], -2.87 ± 0.24.
Consider “ACATTTGTTGATACCACCATAAAATGGTAATTACACCCCTAAATTGATAATTATCACACCCAATTTAACTATAACGCTCTGATCATAGTCAGACCAACATTGCTACGACCCGTATTCGCACCGACAC”, for which the “relative integration efficiency (log2)” value was -0.273 ± 0.24 in data set [1] and -3.42 ± 0.33 in data set [2].
On to “ACATTTGTTGATACCACCATAAAATGGTAATTACACCCCTACATTGATAATTATCACACCCAATTTAACTATAACGCTCTGATCATAGTCAGACCAACATTGCTACGACCCGTATTCGCACCGACAC”, for which the “relative integration efficiency (log2)” value in data set [1] is -0.988 ± 0.042; in data set [2] it was -4.23 ± 0.31.
Consider “ACATTTGTTGATACCACCATAAAATGGTAATTCCACCCATAAATTGATAATTATCACACCCAATTTAACTATAACGCTCTGATCATAGTCAGACCAACATTGCTACGACCCGTATTCGCACCGACAC”, for which the entries for the “relative integration efficiency (log2)” value in data set [1] and in data set [2] were 2.06 ± 0.076 and -1.38 ± 0.23, respectively.
In the same order, the values of “ACATTTGTTGATACCACCATAAAATGGTAATTCCACCCATACATTGATAATTATCACACCCAATTTAACTATAACGCTCTGATCATAGTCAGACCAACATTGCTACGACCCGTATTCGCACCGACAC” are 0.278 ± 0.23 and -3.16 ± 0.49.
As to “ACATTTGTTGATACCACCATAAAATGGTAATTCCACCCCTAAATTGATAATTATCACACCCAATTTAACTATAACGCTCTGATCATAGTCAGACCAACATTGCTACGACCCGTATTCGCACCGACAC”, the “relative integration efficiency (log2)” value in data set [1] is -0.252 ± 0.21; in data set [2], -3.4 ± 0.27.
Consider “ACATTTGTTGATACCACCATAAAATGGTAATTCCACCCCTACATTGATAATTATCACACCCAATTTAACTATAACGCTCTGATCATAGTCAGACCAACATTGCTACGACCCGTATTCGCACCGACAC”, for which the “relative integration efficiency (log2)” value in data set [1] was -0.833 ± 0.022; in data set [2], -4.47 ± 0.45.
In the case of “ACATTTGTTGATACCACCATCAAATGATAATTACACCCATAAATTGATAATTATCACACCCAATTTAACTATAACGCTCTGATCATAGTCAGACCAACATTGCTACGACCCGTATTCGCACCGACAC”, the “relative integration efficiency (log2)” value in data set [1] was 1.14 ± 0.18; in data set [2], -1.91 ± 0.26.
Consider “ACATTTGTTGATACCACCATCAAATGATAATTACACCCATACATTGATAATTATCACACCCAATTTAACTATAACGCTCTGATCATAGTCAGACCAACATTGCTACGACCCGTATTCGCACCGACAC”, for which the “relative integration efficiency (log2)” value is -0.805 ± 0.15 in data set [1] and -3.87 ± 0.1 in data set [2].
For the sequence “ACATTTGTTGATACCACCATCAAATGATAATTACACCCCTAAATTGATAATTATCACACCCAATTTAACTATAACGCTCTGATCATAGTCAGACCAACATTGCTACGACCCGTATTCGCACCGACAC”, the “relative integration efficiency (log2)” value in data set [1] is -1.78 ± 0.038; in data set [2], -4.72 ± 0.056.
For “ACATTTGTTGATACCACCATCAAATGATAATTACACCCCTACATTGATAATTATCACACCCAATTTAACTATAACGCTCTGATCATAGTCAGACCAACATTGCTACGACCCGTATTCGCACCGACAC”, the “relative integration efficiency (log2)” value in data set [1] was -2.42 ± 0.59; in data set [2], -5.58 ± 0.31.
As to “ACATTTGTTGATACCACCATCAAATGATAATTCCACCCATAAATTGATAATTATCACACCCAATTTAACTATAACGCTCTGATCATAGTCAGACCAACATTGCTACGACCCGTATTCGCACCGACAC”, the “relative integration efficiency (log2)” value was 1.36 ± 0.27 in data set [1] and -2.05 ± 0.11 in data set [2].
